Data from article PMC5228624.

Target: T1, arginine vasopressin (AVP) (UniProt P01185 20-28)
T1 chain: CYFQNCPRG
Assay: bead capture, thermal elution, MALDI-TOF MS

ACCTGGGGGAGTATTGCGGAGGAAGGTAAAAAAA (ssDNA) [ATP-specific aptamer (control)]
binding result: no binding
